Changes are numbered by the printed parent chain.
B1: anti-variant (human) Fc-region antibody M1.3.17 (antibody, V domains shown)
VH: EVKLLESGGGLVQPGGSLKLSCAASGIDFRRYWMNWVRQAPGKGLEWIGEIDPDSSTINYTPSLKDKFIISRDNAKNTMYLQMRKVRSEDTALYYCARPYDYGAWFAYWGQGTLVTVSA
VL: QAVVTQESALTTSPGETVTLTCRSTTGAVTTSNYANWVQEKPDHLFTGLIGGTNKRAPGVPARFSGSLIGDKAALTITGAQTEDEAIYFCALWYSDHWVFGGGTKLTVL
B2: anti-variant (human) Fc-region antibody M1.7.24 (antibody, V domains shown)
VH: B1 VH with I27F, R30S, D52T, M79L, R84I, A97V, Y108S
VL: B1 VL with T25S, D96N
B3: anti-AAA variant Fc-region antibody M1.6.22 (antibody, V domains shown)
VH: EVQLVESGGDLVKPGGSLKLSCAASGFTFSSYGMSWVRQTPDKRLEWVATISSGGSYIYYPDSVKGRFTISRDNAKNTLYLQMSSLKSEDTAMYYCARLGMITTGYAMDYWGQGTSVTVSS
VL: DVLMTQTPLSLPVSLGDQASISCRSSQTIVHSTGHTYLEWFLQKPGQSPKLLIYKVSNRFSGVPDRFSGSGSGTDFTLKISRVEAEDLGVYYCFQGSHVPYTFGGGTKLEIK

How the values were obtained:
[1] = target: anti-P-Selectin antibody (IgG4 subclass with mutations S228P/L235E) (human) [IgG part: P01861]; assay: sandwich ELISA assay B; capture on SA plate; tracer M1.7.10-Dig; analyte 100 ng/mL
[2] = target: anti-IGF-1R antibody (IgG1 subclass with mutations I253A/H310A/H435A) (human) [IgG part: P01857]; assay: as above
[3] = target: anti-VEGF/ANG2 antibody (IgG1 subclass with mutations P329G/L234A/L235A) (human) [IgG part: P01857]; assay: as above
[4] = target: anti-VEGF/ANG2 antibody (IgG1 subclass with mutations P329G/L234A/L235A/I253A/H310A/H435A) (human) [IgG part: P01857]; assay: as above
[5] = target: anti-P-Selectin antibody (IgG4 subclass with mutations S228P/L235E) [IgG part: P01861]; assay: sandwich ELISA assay A; capture M1.7.10-Bi; antibody 4 at 6 ng/mL
[6] = target: anti-IGF-1R antibody (IgG1 subclass with mutations I253A/H310A/H435A) (human) [IgG part: P01857]; assay: sandwich ELISA assay C; capture on SA plate; tracer FcγRI-Dig; analyte 2 ng/mL
[7] = target: anti-VEGF/ANG2 antibody (IgG1 subclass with mutations P329G/L234A/L235A) (human) [IgG part: P01857]; assay: as above
[8] = target: anti-VEGF/ANG2 antibody (IgG1 subclass with mutations P329G/L234A/L235A/I253A/H310A/H435A) (human) [IgG part: P01857]; assay: as above
[9] = target: anti-P-Selectin antibody (IgG4 subclass with mutations S228P/L235E) (human) [IgG part: P01861]; assay: sandwich ELISA assay C; capture on SA plate; tracer FcγRI-Dig; analyte 50 ng/mL
[10] = target: anti-IGF-1R antibody (IgG1 subclass with mutations I253A/H310A/H435A) (human) [IgG part: P01857]; assay: as above
[11] = target: anti-VEGF/ANG2 antibody (IgG1 subclass with mutations P329G/L234A/L235A) (human) [IgG part: P01857]; assay: as above
[12] = target: anti-VEGF/ANG2 antibody (IgG1 subclass with mutations P329G/L234A/L235A/I253A/H310A/H435A) (human) [IgG part: P01857]; assay: as above
[13] = target: anti-P-Selectin antibody (IgG4 subclass with mutations S228P/L235E) (human) [IgG part: P01861]; assay: sandwich ELISA assay C; capture on SA plate; tracer FcγRI-Dig; analyte 25 ng/mL
[14] = target: anti-IGF-1R antibody (IgG1 subclass with mutations I253A/H310A/H435A) (human) [IgG part: P01857]; assay: as above
[15] = target: anti-VEGF/ANG2 antibody (IgG1 subclass with mutations P329G/L234A/L235A) (human) [IgG part: P01857]; assay: as above
[16] = target: anti-VEGF/ANG2 antibody (IgG1 subclass with mutations P329G/L234A/L235A/I253A/H310A/H435A) (human) [IgG part: P01857]; assay: as above
[17] = target: anti-P-Selectin antibody (IgG4 subclass with mutations S228P/L235E) [IgG part: P01861]; assay: sandwich ELISA assay A; capture M1.7.10-Bi; antibody 4 at 13 ng/mL
[18] = target: anti-VEGF/ANG2 antibody (IgG1 subclass with mutations P329G/L234A/L235A) [IgG part: P01857]; assay: sandwich ELISA assay A; capture M1.7.10-Bi; antibody 2 at 13 ng/mL
[19] = target: anti-P-Selectin antibody (IgG4 subclass with mutations S228P/L235E) (human) [IgG part: P01861]; assay: sandwich ELISA assay C; capture on SA plate; tracer FcγRI-Dig; analyte 3 ng/mL
[20] = target: anti-IGF-1R antibody (IgG1 subclass with mutations I253A/H310A/H435A) (human) [IgG part: P01857]; assay: as above
[21] = target: anti-VEGF/ANG2 antibody (IgG1 subclass with mutations P329G/L234A/L235A) (human) [IgG part: P01857]; assay: as above
[22] = target: anti-VEGF/ANG2 antibody (IgG1 subclass with mutations P329G/L234A/L235A/I253A/H310A/H435A) (human) [IgG part: P01857]; assay: as above
[23] = target: anti-VEGF/ANG2 antibody (IgG1 subclass with mutations P329G/L234A/L235A) [IgG part: P01857]; assay: sandwich ELISA assay A; capture M1.7.10-Bi; antibody 2 at 50 ng/mL
[24] = target: anti-IGF-1R antibody (IgG1 subclass with mutations I253A/H310A/H435A) [IgG part: P01857]; assay: sandwich ELISA assay A; capture M1.7.10-Bi; antibody 3 at 50 ng/mL
[25] = target: anti-P-Selectin antibody (IgG4 subclass with mutations S228P/L235E) [IgG part: P01861]; assay: sandwich ELISA assay A; capture M1.7.10-Bi; antibody 4 at 0 ng/mL (blank)

Binder	signal [OD405 nm] [1] [OD405 nm]	signal [OD405 nm] [2] [OD405 nm]	signal [OD405 nm] [3] [OD405 nm]	signal [OD405 nm] [4] [OD405 nm]	signal [OD405 nm] [5] [OD405 nm]	signal [OD405 nm] [6] [OD405 nm]	signal [OD405 nm] [7] [OD405 nm]	signal [OD405 nm] [8] [OD405 nm]	signal [OD405 nm] [9] [OD405 nm]	signal [OD405 nm] [10] [OD405 nm]	signal [OD405 nm] [11] [OD405 nm]	signal [OD405 nm] [12] [OD405 nm]	signal [OD405 nm] [13] [OD405 nm]	signal [OD405 nm] [14] [OD405 nm]	signal [OD405 nm] [15] [OD405 nm]	signal [OD405 nm] [16] [OD405 nm]	signal [OD405 nm] [17] [OD405 nm]	signal [OD405 nm] [18] [OD405 nm]	signal [OD405 nm] [19] [OD405 nm]	signal [OD405 nm] [20] [OD405 nm]	also measured
B1	0.048	0.05	0.216	0.035	0.036	1.26	1.22	1.17	1.15	1.21	1.21	1.17	1.17	1.2	1.21	1.07	0.038	2.7	1.19	1.21	signal [OD405 nm] [21]: 1.22 OD405 nm; signal [OD405 nm] [22]: 1.16 OD405 nm; signal [OD405 nm] [23]: 2.96 OD405 nm; signal [OD405 nm] [24]: 0.044 OD405 nm; signal [OD405 nm] [25]: 0.036 OD405 nm
B2	0.05	0.098	3.23	0.057	0.045	0.074	0.093	0.085	0.066	0.095	0.094	0.084	0.07	0.073	0.083	0.082	0.046	2.52	0.053	0.077	signal [OD405 nm] [21]: 0.057 OD405 nm; signal [OD405 nm] [22]: 0.094 OD405 nm; signal [OD405 nm] [23]: 2.6 OD405 nm; signal [OD405 nm] [24]: 0.048 OD405 nm; signal [OD405 nm] [25]: 0.045 OD405 nm
B3	0.051	2.9	0.21	0.052	0.041	0.082	0.072	0.077	0.054	1.06	0.057	0.077	0.06	0.401	0.063	0.081	0.05	0.051	0.05	0.083	signal [OD405 nm] [21]: 0.068 OD405 nm; signal [OD405 nm] [22]: 0.066 OD405 nm; signal [OD405 nm] [23]: 0.065 OD405 nm; signal [OD405 nm] [24]: 2.74 OD405 nm; signal [OD405 nm] [25]: 0.043 OD405 nm

Reference: patent publication US20180346602A1
